From patent US20120100530

Target: T1, EcoExo I C98S/C306S/C330T (ONLD0366) C98S/C306S/C330T (Escherichia coli) (UniProt P04995)
T1 sequence: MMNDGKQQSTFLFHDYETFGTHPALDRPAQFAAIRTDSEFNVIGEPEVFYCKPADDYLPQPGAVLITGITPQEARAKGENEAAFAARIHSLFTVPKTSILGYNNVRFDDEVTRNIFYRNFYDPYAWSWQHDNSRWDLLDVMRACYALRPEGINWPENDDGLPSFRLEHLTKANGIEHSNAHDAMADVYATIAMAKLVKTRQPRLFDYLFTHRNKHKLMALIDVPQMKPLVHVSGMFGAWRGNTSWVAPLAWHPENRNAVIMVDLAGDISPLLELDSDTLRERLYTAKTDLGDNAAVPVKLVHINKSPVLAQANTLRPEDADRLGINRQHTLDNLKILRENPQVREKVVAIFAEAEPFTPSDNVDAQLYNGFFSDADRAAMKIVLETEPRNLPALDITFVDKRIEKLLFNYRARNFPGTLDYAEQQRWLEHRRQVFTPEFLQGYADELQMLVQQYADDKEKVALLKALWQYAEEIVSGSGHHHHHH
Experiment: cleavage_in_vitro
Settings: fluorescein-dT at position 15, BHQ1 on dT at position 1; relative activity of mutants stated higher than wild type

Exo I assay DNA template
activity (relative to wild type): > 1
